Data taken from patent US11833164B2, “Methods of treating Fabry disease in patients having a mutation in the GLA gene” (Amicus Therapeutics, Inc., priority 2019, dated 2023).

Tested on: mutant form of α-Gal A expressed in HEK-293 cells
Assay: HEK assay (GLP HEK / Migalastat Amenability Assay): α-Gal A activity in lysates of transiently transfected HEK-293 cells incubated with or without 10 μM migalastat
Type: cell-based, human
Settings: for Absolute increase (% WT) / Relative increase: 10 μM migalastat versus baseline; for Baseline α-Gal A activity (% WT): absence of migalastat; for Baseline α-Gal A activity (% WT) / 10 μM migalastat α-Gal A activity (% WT): percentage of baseline wild-type α-Gal A activity; for Baseline α-Gal A activity (% WT) / Baseline α-Gal A activity / 10 μM migalastat α-Gal A activity / 10 μM migalastat α-Gal A activity (% WT): mean ± SEM; for Baseline α-Gal A activity / 10 μM migalastat α-Gal A activity: lysates of HEK-293 cells transiently transfected with the mutant form; for Baseline α-Gal A activity: incubated 5 days in absence of migalastat; for 10 μM migalastat α-Gal A activity: incubated 5 days with 10 μM migalastat; for 10 μM migalastat α-Gal A activity (% WT): with 10 μM migalastat, 5 days
How it was run: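 HEK-293 cells transiently transfected with mutant α-Gal A and incubated with or without 10 μM migalastat; lysate activity given as nmol free 4-MU released per mg protein per hour. Values are mean±SEM.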

B1: A318P (protein)
chain: MQLRNPELHLGCALALRFLALVSWDIPGARALDNGLARTPTMGWLHWERFMCNLDCQEEPDSCISEKLFMEMAELMVSEGWKDAGYEYLCIDDCWMAPQRDSEGRLQADPQRFPHGIRQLANYVHSKGLKLGIYADVGNKTCAGFPGSFGYYDIDAQTFADWGVDLLKFDGCYCDSLENLADGYKHMSLALNRTGRSIVYSCEWPLYMWPFQKPNYTEIRQYCNHWRNFADIDDSWKSIKSILDWTSFNQERIVDVAGPGGWNDPDMLVIGNFGLSWNQQVTQMALWAIMAAPLFMSNDLRHISPQAKALLQDKDVIPINQDPLGKQGYQLRQGDNFEVWERPLSGLAWAVAMINRQEIGGPRSYTIAVASLGKGVACNPACFITQLLPVKRKLGFYEWTSRLRSHINPTGTVLLQLENTMQMSLKDLL
Absolute increase (% WT): 6.5 % WT | Relative increase: 5.3 | Baseline α-Gal A activity (% WT): 1.5 ± 0.2 % WT | Baseline α-Gal A activity: 526 ± 42 nmol/mg/h | 10 μM migalastat α-Gal A activity: 2799 ± 174 nmol/mg/h | 10 μM migalastat α-Gal A activity (% WT): 8 ± 0.8 % WT

B2: N320T (protein)
chain: MQLRNPELHLGCALALRFLALVSWDIPGARALDNGLARTPTMGWLHWERFMCNLDCQEEPDSCISEKLFMEMAELMVSEGWKDAGYEYLCIDDCWMAPQRDSEGRLQADPQRFPHGIRQLANYVHSKGLKLGIYADVGNKTCAGFPGSFGYYDIDAQTFADWGVDLLKFDGCYCDSLENLADGYKHMSLALNRTGRSIVYSCEWPLYMWPFQKPNYTEIRQYCNHWRNFADIDDSWKSIKSILDWTSFNQERIVDVAGPGGWNDPDMLVIGNFGLSWNQQVTQMALWAIMAAPLFMSNDLRHISPQAKALLQDKDVIAITQDPLGKQGYQLRQGDNFEVWERPLSGLAWAVAMINRQEIGGPRSYTIAVASLGKGVACNPACFITQLLPVKRKLGFYEWTSRLRSHINPTGTVLLQLENTMQMSLKDLL
Absolute increase (% WT): 21.8 % WT | Relative increase: 2.0 | Baseline α-Gal A activity (% WT): 21.6 ± 1.5 % WT | Baseline α-Gal A activity: 5597 ± 442 nmol/mg/h | 10 μM migalastat α-Gal A activity: 11276 ± 658 nmol/mg/h | 10 μM migalastat α-Gal A activity (% WT): 43.3 ± 1.9 % WT

B3: D322V (protein)
chain: MQLRNPELHLGCALALRFLALVSWDIPGARALDNGLARTPTMGWLHWERFMCNLDCQEEPDSCISEKLFMEMAELMVSEGWKDAGYEYLCIDDCWMAPQRDSEGRLQADPQRFPHGIRQLANYVHSKGLKLGIYADVGNKTCAGFPGSFGYYDIDAQTFADWGVDLLKFDGCYCDSLENLADGYKHMSLALNRTGRSIVYSCEWPLYMWPFQKPNYTEIRQYCNHWRNFADIDDSWKSIKSILDWTSFNQERIVDVAGPGGWNDPDMLVIGNFGLSWNQQVTQMALWAIMAAPLFMSNDLRHISPQAKALLQDKDVIAINQVPLGKQGYQLRQGDNFEVWERPLSGLAWAVAMINRQEIGGPRSYTIAVASLGKGVACNPACFITQLLPVKRKLGFYEWTSRLRSHINPTGTVLLQLENTMQMSLKDLL
Absolute increase (% WT): 11.7 % WT | Relative increase: 5.6 | Baseline α-Gal A activity (% WT): 2.6 ± 0.2 % WT | Baseline α-Gal A activity: 714 ± 53 nmol/mg/h | 10 μM migalastat α-Gal A activity: 3989 ± 217 nmol/mg/h | 10 μM migalastat α-Gal A activity (% WT): 14.3 ± 0.6 % WT

B4: D322A (protein)
chain: MQLRNPELHLGCALALRFLALVSWDIPGARALDNGLARTPTMGWLHWERFMCNLDCQEEPDSCISEKLFMEMAELMVSEGWKDAGYEYLCIDDCWMAPQRDSEGRLQADPQRFPHGIRQLANYVHSKGLKLGIYADVGNKTCAGFPGSFGYYDIDAQTFADWGVDLLKFDGCYCDSLENLADGYKHMSLALNRTGRSIVYSCEWPLYMWPFQKPNYTEIRQYCNHWRNFADIDDSWKSIKSILDWTSFNQERIVDVAGPGGWNDPDMLVIGNFGLSWNQQVTQMALWAIMAAPLFMSNDLRHISPQAKALLQDKDVIAINQAPLGKQGYQLRQGDNFEVWERPLSGLAWAVAMINRQEIGGPRSYTIAVASLGKGVACNPACFITQLLPVKRKLGFYEWTSRLRSHINPTGTVLLQLENTMQMSLKDLL
Absolute increase (% WT): 15.3 % WT | Relative increase: 3.2 | Baseline α-Gal A activity (% WT): 6.8 ± 0.4 % WT | Baseline α-Gal A activity: 1908 ± 139 nmol/mg/h | 10 μM migalastat α-Gal A activity: 6170 ± 310 nmol/mg/h | 10 μM migalastat α-Gal A activity (% WT): 22.2 ± 1 % WT

B5: N320S (protein)
chain: MQLRNPELHLGCALALRFLALVSWDIPGARALDNGLARTPTMGWLHWERFMCNLDCQEEPDSCISEKLFMEMAELMVSEGWKDAGYEYLCIDDCWMAPQRDSEGRLQADPQRFPHGIRQLANYVHSKGLKLGIYADVGNKTCAGFPGSFGYYDIDAQTFADWGVDLLKFDGCYCDSLENLADGYKHMSLALNRTGRSIVYSCEWPLYMWPFQKPNYTEIRQYCNHWRNFADIDDSWKSIKSILDWTSFNQERIVDVAGPGGWNDPDMLVIGNFGLSWNQQVTQMALWAIMAAPLFMSNDLRHISPQAKALLQDKDVIAISQDPLGKQGYQLRQGDNFEVWERPLSGLAWAVAMINRQEIGGPRSYTIAVASLGKGVACNPACFITQLLPVKRKLGFYEWTSRLRSHINPTGTVLLQLENTMQMSLKDLL
Absolute increase (% WT): 23.9 % WT | Relative increase: 1.3 | Baseline α-Gal A activity (% WT): 82.9 ± 4.5 % WT | Baseline α-Gal A activity: 21562 ± 1285 nmol/mg/h | 10 μM migalastat α-Gal A activity: 28097 ± 1522 nmol/mg/h | 10 μM migalastat α-Gal A activity (% WT): 106.7 ± 3.9 % WT

B6: A318V (protein)
chain: MQLRNPELHLGCALALRFLALVSWDIPGARALDNGLARTPTMGWLHWERFMCNLDCQEEPDSCISEKLFMEMAELMVSEGWKDAGYEYLCIDDCWMAPQRDSEGRLQADPQRFPHGIRQLANYVHSKGLKLGIYADVGNKTCAGFPGSFGYYDIDAQTFADWGVDLLKFDGCYCDSLENLADGYKHMSLALNRTGRSIVYSCEWPLYMWPFQKPNYTEIRQYCNHWRNFADIDDSWKSIKSILDWTSFNQERIVDVAGPGGWNDPDMLVIGNFGLSWNQQVTQMALWAIMAAPLFMSNDLRHISPQAKALLQDKDVIVINQDPLGKQGYQLRQGDNFEVWERPLSGLAWAVAMINRQEIGGPRSYTIAVASLGKGVACNPACFITQLLPVKRKLGFYEWTSRLRSHINPTGTVLLQLENTMQMSLKDLL
Absolute increase (% WT): 16.5 % WT | Relative increase: 1.4 | Baseline α-Gal A activity (% WT): 37.9 ± 2.1 % WT | Baseline α-Gal A activity: 14603 ± 1377 nmol/mg/h | 10 μM migalastat α-Gal A activity: 19658 ± 1108 nmol/mg/h | 10 μM migalastat α-Gal A activity (% WT): 54.4 ± 3.5 % WT

B7: I319M (protein)
chain: MQLRNPELHLGCALALRFLALVSWDIPGARALDNGLARTPTMGWLHWERFMCNLDCQEEPDSCISEKLFMEMAELMVSEGWKDAGYEYLCIDDCWMAPQRDSEGRLQADPQRFPHGIRQLANYVHSKGLKLGIYADVGNKTCAGFPGSFGYYDIDAQTFADWGVDLLKFDGCYCDSLENLADGYKHMSLALNRTGRSIVYSCEWPLYMWPFQKPNYTEIRQYCNHWRNFADIDDSWKSIKSILDWTSFNQERIVDVAGPGGWNDPDMLVIGNFGLSWNQQVTQMALWAIMAAPLFMSNDLRHISPQAKALLQDKDVIAMNQDPLGKQGYQLRQGDNFEVWERPLSGLAWAVAMINRQEIGGPRSYTIAVASLGKGVACNPACFITQLLPVKRKLGFYEWTSRLRSHINPTGTVLLQLENTMQMSLKDLL
Absolute increase (% WT): 9.4 % WT | Relative increase: 1.2 | Baseline α-Gal A activity (% WT): 47.4 ± 2.2 % WT | Baseline α-Gal A activity: 12191 ± 433 nmol/mg/h | 10 μM migalastat α-Gal A activity: 14802 ± 727 nmol/mg/h | 10 μM migalastat α-Gal A activity (% WT): 56.8 ± 2.3 % WT

B8: A318T (protein)
chain: MQLRNPELHLGCALALRFLALVSWDIPGARALDNGLARTPTMGWLHWERFMCNLDCQEEPDSCISEKLFMEMAELMVSEGWKDAGYEYLCIDDCWMAPQRDSEGRLQADPQRFPHGIRQLANYVHSKGLKLGIYADVGNKTCAGFPGSFGYYDIDAQTFADWGVDLLKFDGCYCDSLENLADGYKHMSLALNRTGRSIVYSCEWPLYMWPFQKPNYTEIRQYCNHWRNFADIDDSWKSIKSILDWTSFNQERIVDVAGPGGWNDPDMLVIGNFGLSWNQQVTQMALWAIMAAPLFMSNDLRHISPQAKALLQDKDVITINQDPLGKQGYQLRQGDNFEVWERPLSGLAWAVAMINRQEIGGPRSYTIAVASLGKGVACNPACFITQLLPVKRKLGFYEWTSRLRSHINPTGTVLLQLENTMQMSLKDLL
Absolute increase (% WT): 17.7 % WT | Relative increase: 1.3 | Baseline α-Gal A activity (% WT): 45.2 ± 2.8 % WT | Baseline α-Gal A activity: 16954 ± 1483 nmol/mg/h | 10 μM migalastat α-Gal A activity: 22296 ± 1232 nmol/mg/h | 10 μM migalastat α-Gal A activity (% WT): 62.9 ± 4.6 % WT

B9: Q321K (protein)
chain: MQLRNPELHLGCALALRFLALVSWDIPGARALDNGLARTPTMGWLHWERFMCNLDCQEEPDSCISEKLFMEMAELMVSEGWKDAGYEYLCIDDCWMAPQRDSEGRLQADPQRFPHGIRQLANYVHSKGLKLGIYADVGNKTCAGFPGSFGYYDIDAQTFADWGVDLLKFDGCYCDSLENLADGYKHMSLALNRTGRSIVYSCEWPLYMWPFQKPNYTEIRQYCNHWRNFADIDDSWKSIKSILDWTSFNQERIVDVAGPGGWNDPDMLVIGNFGLSWNQQVTQMALWAIMAAPLFMSNDLRHISPQAKALLQDKDVIAINKDPLGKQGYQLRQGDNFEVWERPLSGLAWAVAMINRQEIGGPRSYTIAVASLGKGVACNPACFITQLLPVKRKLGFYEWTSRLRSHINPTGTVLLQLENTMQMSLKDLL
Absolute increase (% WT): 32.0 % WT | Relative increase: 2.1 | Baseline α-Gal A activity (% WT): 29.2 ± 2 % WT | Baseline α-Gal A activity: 7590 ± 520 nmol/mg/h | 10 μM migalastat α-Gal A activity: 16046 ± 870 nmol/mg/h | 10 μM migalastat α-Gal A activity (% WT): 61.2 ± 2.4 % WT
